In patent publication US20230167458A1, “FORSKOLIN-INDUCIBLE PROMOTERS AND HYPOXIA-INDUCIBLE PROMOTERS” (ASKLEPIOS BIOPHARMACEUTICAL, INC., priority 2020, published 2023):

Experiments:
[1] = tested on: HEK293-F; test: Luciferase time course after forskolin induction, transient transfection of suspension HEK293-F; type: cell-based, human; conditions: 20 µM forskolin
Protocol: The tested promoters were synthesised directly upstream of the ATG of PM-RQ plasmid and the suspension cell lines were transiently transfected with the PM-RQ plasmid.
40 ml of cells were grown in a 250 ml vented Erlenmeyer flask (Sigma-Aldrich CLS431144) at 37° C., 20% O2, 8% CO2 with agitation at 100 rpm. Cells were seeded as described in the manufacturer's instructions (300,000 cells/ml). HEK293-F were obtained from Thermofisher, R79007.
One day before transfection, the cells were counted using a haemocytometer and split to 500,000 cells/ml.
On the day of transfection, the cells are seeded to 1,000,000 cells/ml in 500 μl of appropriate medium (Freestyle 293 expression medium, 12338002) in a 24 well plate. […] of DNA per well was then added to 10 μl of OptiMem medium (Thermofisher; 11058021) and incubated for 5 minutes at room temperature.
Concurrently, 0.625 μl of Max reagent (Thermofisher, 16447100) was made up to 10 μl by addition of OptiMem and incubated for 5 minutes at room temperature. After this incubation, both mixes were added to the same tube and incubated at room temperature for 25-30 minutes. […]
24 hours after transfection, the promoters were induced by addition of […] forskolin and luciferase activity was measured 0, 3, 5 and 24 hours after induction. Luciferase activity was measured as previously described.

[2] = tested on: Huh7 human liver cell line; test: Luciferase expression from promoters in pAAV vector (with ITRs) in Huh7, forskolin or NKH477 induction; set-up: fold induction with forskolin: dose or concentration left out as unconfirmed
Protocol: The forskolin-inducible promoters RTV-017, RTV-019 and FORCYB1 were then used to drive expression of luciferase in a pAAV vector in the Huh7 human liver cell line. […] This experiment was performed to investigate the effect of the Inverted Terminal Repeats (ITRs) on the activity of the promoters.
The cells were seeded, transfected and induced as described above. Luciferase expression was measured as described above. In this experiment, the cells were induced by using 20 pM forskolin or 7.2 pM of the water soluble derivative NKH477.

[3] = tested on: CHO-GS-KSV1 cell line; test: SEAP expression in stably transfected CHO-GS-KSV1, forskolin or NKH477 induction; type: cell-based, chinese hamster; conditions: stable CHO-GS-KSV1, SEAP, forskolin or NKH477
Protocol: The forskolin-inducible promoters were then tested in a stably transfected CHO-GS-KSV1 cell line.
• CD-CHO media (Life technologies, CAT #10743029) • Corning 125 mL Polycarbonate Erlenmeyer Flask with Vent Cap (CAT #734-1885). • Gene Pulser® Electroporation Cuvettes, 0.4 cm gap (BioRad, CAT #165-2088) • Gene Pulser Xcell Total System (BioRad, CAT, #1652660) • GS-vector DNA ([…] in 100 μL TE buffer) linearised with Sca1 • Suspension cultures of CHOK1SV GS-KO host cells.
Cell suspensions of 6×10^5 cells per mL were incubated on an orbital shaker set at 8% CO2, 20% O2, 37° C., 85% relative humidity and 140 rpm overnight. 2.86×10^7 cells were centrifuged at 200 g for 3 minutes. Media was then aspirated and cell pellet resuspended in 2 mL fresh CD-CHO media to obtain a concentration of 1.43×10^7 cells per mL. 700 μL of cell suspension was added to each of two electroporation cuvettes each containing […] of linearised DNA in 100 μL of sterile TE buffer (Thermofisher, 12090015). Each cuvette was electroporated, delivering a single pulse of 300V, […] with resistance to infinity. Immediately after delivery of pulse electroplated cells were transferred to Erlenmeyer 125 mL flask containing 20 mL of CD-CHO media pre-warmed to 37° C. Electroporated cells from two cuvettes are combined into a single 125 mL flask to generate one pool of cells. Cells are cultured on an orbital shaker set at 8% CO2, 20% O2, 37° C., 85% relative humidity and 140 rpm. Cells are transferred to fresh CD-CHO media 24 hours after transfection and cell cultures monitored and given fresh CD-CHO media every 2-4 days. Usually after about 10-14 days cell numbers will be high enough to start passaging.
The transfected DNA was the pXC-17.4 expression vector (Lonza Biologics plc) where one of the promoter constructs (or a control promoter (CMV-IE) have been cloned upstream of the secreted alkaline phosphatase (SEAP) gene, which had been cloned into the multiple cloning site within the vector expression cassette. Promoters were closed into the pXC-17.4 vector using Gibson assembly. The pXC-17.4 expression vector is designed for making stable cell lines in the CHO-GSK1SV cell line as it contains the […] gene which has been knocked out of the cell line. Therefore, selection of cells in glutamine drop-out medium will select for cells that have stably integrated the plasmid.
The responsiveness of the RTV-019 promoter to different concentrations of forskolin and […] was tested in the stably transfected CHO-GS-KSV1 cell line. To this end, the stably transfected CHO-GS cells were seeded at 500,000 cells/ml and allowed to grow for 24 hrs. At this point the cells were induced by addition of the respective concentrations of forskolin and NKH477 and SEAP expression was measured as described below after 24 hours.
The promoter activity and inducibility of FMP-02, FORCYB-001, RTV-017, FORCSV-10, FOR-CMC-009, FLP-01 and RTV-019 were also tested in the stably transfected CHO-GS-KSV1 cell line. To this end, the stably transfected CHO-GS cells were seeded at 500,000 cells/ml and allowed to grow for 24 hrs. At this point the cells were exposed to […] forskolin or […] NKH477 for 24 hours. After this point, the SEAP activity in the medium was assessed as described below.
SEAP Reporter Gene Assay, chemiluminescent (Roche, CAT #11 779 842 001) was used to measure SEAP activity as per the manufacturer's protocol. All reagents and samples were fully pre-equilibrated at room temperature. Culture supernatant was collected from the stably transfected CHO-GS at the specific time points (0 h and 24 h). The supernatant was diluted 1:4 in dilution buffer and heat treated at 65° C. for 30 minutes. The heat-treated sample was then centrifuged for 30 s at maximum speed. 50 μl of the heat-treated sample was then added to 5 μl of inactivation buffer and incubated for 5 min at room temperature. 50 μl of substrate reagent was then added and incubated for 10 min at room temperature. […]

B1: RTV-019: synthetic forskolin-inducible promoter, SEQ ID NO: 44; 3× ATF6, 4× AP1(1) and 3× HRE1 TFBS and CMV-MP (nucleic acid)
DNA: TGACGTGCTGATGATGCGTAGCTAGTAGTTGACGTGCTGATGATGCGTAGCTAGTAGTTGACGTGCTGATGATGCGTAGCTAGTAGTTGAGTCAGATGATGCGTAGCTAGTAGTTGAGTCAGATGATGCGTAGCTAGTAGTTGAGTCAGATGATGCGTAGCTAGTAGTTGAGTCAGATGATGCGTAGCTAGTAGTCTGCACGTAGATGATGCGTAGCTAGTAGTCTGCACGTAGATGATGCGTAGCTAGTAGTCTGCACGTAGATGATGCGTAGCTAGTAGTGCAGTTAGCGTAGCTGAGGTACCGTCGACGATATCGGATCCAGGTCTATATAAGCAGAGCTCGTTTAGTGAACCGTCAGATCGCCTAGATACGCCATCCACGCTGTTTTGACCTCCATAGAAGATCGCCACC
modifications: Synp-RTV-019
notes: 3× ATF6, 4× AP1(1) and 3× HRE1 TFBS and CMV-MP
With B1 the “relative rank of promoter (fold induction/strength)” value [1] was “strongest”, the “fold induction with forskolin” value ([2]; Huh7) was 98 fold and the “luciferase activity without induction (background)” value ([2]; Huh7) was “low background activity”. The “fold induction with NKH477” value ([2]; Huh7, 7.2 pM NKH477) was 86 fold, the “luciferase activity following induction” value ([2]; Huh7, or 7.2 pM NKH477) was “high activity” and the “relative rank of promoter strength” value [3] was “strongest”.
